B1: JT18 (antibody, V domains shown)
VH: EVQLVQSGAEVKRPGESLRISCKTSGYDFTDYWINWVRQMPGKGLEWVGMVYPSDSETAYSPSFRGRVTISADTSISTSYLQWTSLEASDTATYYCARPVSGTFALDVWGRGVLVAVSS
VL: QSVLTQPPSMSGAPGQRVTMSCTGGNSNIGANLYVQWYQQVPGTAPRLLIYEDNQRPSGVSDRFSGSRSGSSASLTITGLQSEDEADYYCQSYDNSLSTVLFGGGTRLTVL
B2: SHIV_(1157ipd3N4) V3 peptide (305KSISIGPGQAI317) (peptide)
peptide: KSISIGPGQAI

Tests used:
Assay in all cases: BLI
[1] = biological target: B2
[2] = biological target: 447-52D
[3] = biological target: J038

Binder | Kd [1] [nM] | Kd [2] [nM] | Kd [3] [nM]
B1 | 55.3 | – | –
B2 | – | 55.6 | 1650

Reference: PMC11240982 (2024)
